Test results: publication PMC1475753

Legend:
φ29 DNA polymerase T573A = biological target: T1, φ29 DNA polymerase T573A (bacteriophage φ29, UniProt P03680 1-575, T573A); assay: EMSA
T1 sequence: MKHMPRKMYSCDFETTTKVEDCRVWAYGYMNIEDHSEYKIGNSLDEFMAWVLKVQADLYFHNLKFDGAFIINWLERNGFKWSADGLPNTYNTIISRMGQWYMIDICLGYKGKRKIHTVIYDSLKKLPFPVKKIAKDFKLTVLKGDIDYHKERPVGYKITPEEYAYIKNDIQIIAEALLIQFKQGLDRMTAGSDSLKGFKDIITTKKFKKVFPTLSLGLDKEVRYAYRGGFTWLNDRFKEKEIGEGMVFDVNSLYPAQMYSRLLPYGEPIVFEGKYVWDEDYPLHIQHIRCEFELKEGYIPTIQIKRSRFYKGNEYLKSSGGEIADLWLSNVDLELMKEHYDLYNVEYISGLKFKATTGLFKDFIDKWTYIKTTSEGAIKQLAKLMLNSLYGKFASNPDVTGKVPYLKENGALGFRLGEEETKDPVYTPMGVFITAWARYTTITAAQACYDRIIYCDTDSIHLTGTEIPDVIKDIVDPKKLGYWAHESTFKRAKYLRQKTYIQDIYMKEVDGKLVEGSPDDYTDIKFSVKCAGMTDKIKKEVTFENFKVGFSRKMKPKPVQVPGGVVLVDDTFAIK

φ29 DNA polymerase K538A = biological target: T2, φ29 DNA polymerase K538A (bacteriophage φ29, UniProt P03680 1-575, K538A); assay: EMSA
T2 sequence: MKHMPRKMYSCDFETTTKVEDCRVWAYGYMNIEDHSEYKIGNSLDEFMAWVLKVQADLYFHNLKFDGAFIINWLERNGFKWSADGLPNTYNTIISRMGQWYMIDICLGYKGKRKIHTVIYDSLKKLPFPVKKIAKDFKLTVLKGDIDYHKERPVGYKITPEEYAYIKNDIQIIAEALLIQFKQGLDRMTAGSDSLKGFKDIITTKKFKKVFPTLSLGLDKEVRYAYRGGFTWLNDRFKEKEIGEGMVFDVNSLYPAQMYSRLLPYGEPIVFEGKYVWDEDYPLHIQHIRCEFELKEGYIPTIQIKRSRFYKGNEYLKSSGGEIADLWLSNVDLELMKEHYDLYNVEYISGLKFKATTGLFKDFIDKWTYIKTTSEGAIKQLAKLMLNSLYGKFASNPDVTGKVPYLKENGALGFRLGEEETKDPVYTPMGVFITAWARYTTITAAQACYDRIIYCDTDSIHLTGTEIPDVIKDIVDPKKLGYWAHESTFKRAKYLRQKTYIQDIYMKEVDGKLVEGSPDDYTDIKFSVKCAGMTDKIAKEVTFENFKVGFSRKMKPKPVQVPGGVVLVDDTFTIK

B1: sp1/sp1c+6 (15/21mer) (dsDNA)
DNA 1: GATCACAGTGAGTAC
DNA 2: TCTATTGTACTCACTGTGATC
binding result (φ29 DNA polymerase T573A): no binding
binding result (φ29 DNA polymerase K538A): no binding
